# Values quoted from earlier work as cited in PMC11854596.
# Molecular target: 53BP1 BRCT (Homo sapiens) (UniProt Q12888)
# Sequence (Q12888 1714-1972): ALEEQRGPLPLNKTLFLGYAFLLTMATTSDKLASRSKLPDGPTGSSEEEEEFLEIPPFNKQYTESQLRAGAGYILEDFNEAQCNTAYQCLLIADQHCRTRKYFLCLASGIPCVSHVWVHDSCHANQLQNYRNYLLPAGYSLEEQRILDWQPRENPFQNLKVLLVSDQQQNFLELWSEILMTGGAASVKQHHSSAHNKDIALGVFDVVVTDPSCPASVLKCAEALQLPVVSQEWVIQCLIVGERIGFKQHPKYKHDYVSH
substance,measurement,value
γH2AX (from UniProt P16104),Kd,2700 nM
